The target of assay [1] is human Fas (human) (UniProt P25445). Kind of assay: cell-based or functional assay.
The target in assay [2] is human DR5 (death receptor 5) (human) (UniProt O14763). The assay can be described thus: cell-based or functional assay.

Chain of human Fas (human) (P25445 26-335): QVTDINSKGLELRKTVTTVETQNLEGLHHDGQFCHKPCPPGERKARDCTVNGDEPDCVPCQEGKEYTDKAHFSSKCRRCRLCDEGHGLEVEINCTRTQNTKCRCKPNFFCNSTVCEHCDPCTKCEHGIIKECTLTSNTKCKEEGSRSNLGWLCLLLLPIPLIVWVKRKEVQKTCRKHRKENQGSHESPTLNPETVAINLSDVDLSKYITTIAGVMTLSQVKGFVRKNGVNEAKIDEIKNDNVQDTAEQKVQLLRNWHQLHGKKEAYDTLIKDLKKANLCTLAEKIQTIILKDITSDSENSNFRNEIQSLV

In turn, Mouse Anti-hFas Antibody (DX2) came in with a cell viability at 500 or 5000 ng/ml, WR19L12a cells, immunoliposome of Example 40 (% cell viability) in assay [1] below 20.

Consider Mouse Anti-hDR5 Antibody (MAB631), for which, in assay [2], the EC50 (50% cell viability), Jurkat cells, immunoliposome of Example 36 was 0.069 ng/mL; the EC50 (50% cell viability), Jurkat cells, immunoliposome of Example 37 was 0.089 ng/mL; the EC50 (50% cell viability), Jurkat cells, secondary antibody-cross-linked MAB631 was found to be 13.4 ng/mL; the EC50 Ab/IL, Jurkat cells, cross-linked MAB631 vs immunoliposome of Example 36 is 194. In assay [2], this substance displayed an EC50 Ab/IL, Jurkat cells, cross-linked MAB631 vs immunoliposome of Example 37 of 150; a cell viability at 0.1 ng/ml, Jurkat cells, immunoliposome of Example 36 (% cell viability) below 50; a cell viability at 0.1 ng/ml, Jurkat cells, immunoliposome of Example 37 (% cell viability) below 50; a cell viability at 10 or 1000 ng/ml, Jurkat cells, immunoliposome of Example 36 (% cell viability) below 5. In addition, the cell viability at 10 or 1000 ng/ml, Jurkat cells, immunoliposome of Example 37 (% cell viability) in assay [2] was below 5.

Mouse Anti-hDR5 Antibody (MAB6311): in assay [2], the EC50 (50% cell viability), Jurkat cells, immunoliposome of Example 38 was 0.075 ng/mL; the EC50 (50% cell viability), Jurkat cells, immunoliposome of Example 39 was found to be 0.083 ng/mL; the EC50 (50% cell viability), Jurkat cells, secondary antibody-cross-linked MAB6311 worked out at 2.39 ng/mL; the EC50 Ab/IL, Jurkat cells, cross-linked MAB6311 vs immunoliposome of Example 38 is 31.9. In assay [2], this substance gave an EC50 Ab/IL, Jurkat cells, cross-linked MAB6311 vs immunoliposome of Example 39 of 28.8; a cell viability at 0.1 ng/ml, Jurkat cells, immunoliposome of Example 38 (% cell viability) below 40; a cell viability at 0.1 ng/ml, Jurkat cells, immunoliposome of Example 39 (% cell viability) below 40; a cell viability at 10 or 1000 ng/ml, Jurkat cells, immunoliposome of Example 38 (% cell viability) below 5. Besides, the cell viability at 10 or 1000 ng/ml, Jurkat cells, immunoliposome of Example 39 (% cell viability) in assay [2] is below 5.

The values are drawn from patent publication US20100209490A1.
